Laboratory results published in US20210155689A1 (SHANGHAI PHARMAEXPLORER, published 2021).

T1: human LAG-3 on cells (HEK293-hLAG-3 stable cell line) (human, UniProt P18627 23-525)
T1 sequence: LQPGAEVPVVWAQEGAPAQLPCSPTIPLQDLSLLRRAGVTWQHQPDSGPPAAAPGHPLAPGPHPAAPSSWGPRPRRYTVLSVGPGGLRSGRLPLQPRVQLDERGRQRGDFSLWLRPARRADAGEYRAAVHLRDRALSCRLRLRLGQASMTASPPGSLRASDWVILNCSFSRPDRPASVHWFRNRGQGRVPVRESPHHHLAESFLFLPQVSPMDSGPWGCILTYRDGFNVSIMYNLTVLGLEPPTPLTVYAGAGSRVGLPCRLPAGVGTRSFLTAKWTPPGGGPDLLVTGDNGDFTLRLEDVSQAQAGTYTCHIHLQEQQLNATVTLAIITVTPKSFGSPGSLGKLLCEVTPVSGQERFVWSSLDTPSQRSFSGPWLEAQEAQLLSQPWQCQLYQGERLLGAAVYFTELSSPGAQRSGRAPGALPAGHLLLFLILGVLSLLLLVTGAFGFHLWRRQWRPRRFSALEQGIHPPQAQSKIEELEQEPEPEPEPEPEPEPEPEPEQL

T2: LAG-3-hFc protein (human LAG-3 extracellular region with hFc tag) (human, UniProt P18627 23-450)
T2 construct: also called hLAG-3-hFc; LAG-3 protein; not shown: human IgG Fc fragment (hFc) of the pCpC vector
T2 sequence: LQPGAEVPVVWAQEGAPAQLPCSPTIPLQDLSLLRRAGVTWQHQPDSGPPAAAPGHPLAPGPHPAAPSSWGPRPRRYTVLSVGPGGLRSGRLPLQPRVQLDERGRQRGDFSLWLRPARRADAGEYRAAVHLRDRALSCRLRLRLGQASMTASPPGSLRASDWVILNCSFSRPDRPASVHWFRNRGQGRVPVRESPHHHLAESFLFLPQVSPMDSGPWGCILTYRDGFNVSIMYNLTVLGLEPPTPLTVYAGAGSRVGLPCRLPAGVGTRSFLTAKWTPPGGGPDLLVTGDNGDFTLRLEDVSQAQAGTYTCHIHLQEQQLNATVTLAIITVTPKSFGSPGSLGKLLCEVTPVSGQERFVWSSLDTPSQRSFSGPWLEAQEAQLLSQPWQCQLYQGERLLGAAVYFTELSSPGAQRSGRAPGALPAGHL


Experiments:
[1] = target: T1, human LAG-3 on cells (HEK293-hLAG-3 …); assay: cell-based or functional assay
[2] = target: T1, human LAG-3 on cells (HEK293-hLAG-3 …); assay: FACS, HEK293-hLAG-3, antibody 1.600 nM
Text: (§1) The pIRES plasmid with the monkey-derived full-length gene was transfected into the HEK293 cell line to construct a HEK293 stable cell line containing monkey LAG-3 (herein referred to as HEK293-cLAG-3 stable cell line). The HEK293-hLAG-3 stable cell line and HEK293-cLAG-3 stable cell line were expanded in a T-75 cell culture flask to a 90% confluence. The medium was aspirated, and the cells were washed with HBSS (Hanks' Balanced Salt Solution) 1-2 times, then treated with a enzyme-free cell dissociation fluid (Versene solution: Life technology) and the cells were collected. The cells were washed with HBSS buffer for 1-2 times. After counted, the cells were diluted with HBSS to 1-2×10⁶ cells per ml, added with 1% goat serum blocking solution, incubated on ice for 20-30 minutes, and then washed with HBSS for 2 times by centrifugation. The collected cells were suspended in the FACS buffer (HBSS+1% BSA) to 2×10⁶ cells/ml, added as 100 microliters per well to a 96-well FACS reaction plate, added with 100 microliters per well of the antibody sample to be tested, incubated on ice for 1-2 hours. The plate was washed twice with the FACS buffer by centrifugation, added with 100 microliters of fluorescent (Alexa 488)-labeled secondary antibodies per well, and incubated on ice for 0.5-1.0 hours. The plate was washed 2-3 times with FACS buffer by centrifugation, added with 100 μl fixative solution (4% Paraformaldehyde) per well to suspend the cells. 5-10 minutes later, it was washed 1-2 times with FACS buffer by centrifugation. The cells were suspended with 100 microliters of FACS buffer, FACS (FACSCalibur, BD) was used for detection and the results were analyzed.

[3] = target: T1, human LAG-3 on cells (HEK293-hLAG-3 …); assay: FACS, HEK293-hLAG-3, antibody 200.000 nM
Text: as §1

[4] = target: T2, LAG-3-hFc protein (human LAG-3 …); assay: FACS, inhibition of LAG-3-hFc binding to MHC II on Raji cells, antibody 66.667 nM
Method: The FACS reaction plate incubating the Raji cells was centrifuged to discard the supernatant. The above mixture was added as 100 μl per well to Raji cells and incubated on ice for 1-2 hours. The plate was washed twice with blocking solution (PBS, 2% fetal bovine serum) by centrifugation, added with 100 microliters of fluorescent (Alexa 488)-labeled secondary antibodies per well, and incubated on ice for 1.0 hours. The plate was washed 2-3 times by centrifugation with blocking solution (PBS, 2% fetal bovine serum), added with 100 microliters of PBS per well to suspend cells, and detected using FACS (FACS Calibur, BD) and the results were analyzed. Wherein, the IgG control was murine IgG, and the data in the table is the inhibition rate (%).

Binder	IL-2 production, antigen-specific T lymphocyte stimulation test, 0.016 ug/ml, N = 1 [1] [pg/mL]	IL-2 production, antigen-specific T lymphocyte stimulation test, 0.016 ug/ml, N = 2 [1] [pg/mL]	IL-2 production, antigen-specific T lymphocyte stimulation test, 0.08 ug/ml, N = 1 [1] [pg/mL]	IL-2 production, antigen-specific T lymphocyte stimulation test, 0.08 ug/ml, N = 2 [1] [pg/mL]	IL-2 production, antigen-specific T lymphocyte stimulation test, 0.4 ug/ml, N = 1 [1] [pg/mL]	IL-2 production, antigen-specific T lymphocyte stimulation test, 0.4 ug/ml, N = 2 [1] [pg/mL]	IL-2 production, antigen-specific T lymphocyte stimulation test, 2 ug/ml, N = 1 [1] [pg/mL]	IL-2 production, antigen-specific T lymphocyte stimulation test, 2 ug/ml, N = 2 [1] [pg/mL]	IL-2 production, antigen-specific T lymphocyte stimulation test, 10 ug/ml, N = 1 [1] [pg/mL]	IL-2 production, antigen-specific T lymphocyte stimulation test, 10 ug/ml, N = 2 [1] [pg/mL]	Mean fluorescence intensity [2]	Mean fluorescence intensity [3]	Inhibition rate (%) [4] [%]
409B11E12 mouse-human chimeric antibody (antibody, V domains shown, also called mAb104-409B11E12) VH: QVQLQQSGAELVRPGASVTLSCKASGYTFTDYEMHWVKQTTVHGLEWIGATDPETSYSAYNQKFKGKAILTADKSSSTAYMELRSLTSEDSAVYYCIATGWNDWGQGTSLTVSS VL: DLKMTQSPSSMYASLGERVTITCKASQDINSYLSWFQQKPGKSPKTLIYRANRLLDGVPSRFSGSGSGQDYSLTISSLEYEDMGIYYCLQYDEFPYTFGGGTKLEIK	402	433	525	555	835	954	914	915	671	795	69	171	95.3
409D4E10 mouse-human chimeric antibody (antibody, V domains shown, also called mAb112-409D4E10) VH: QVQLQQSGAELVRPGASVTLSCKASGNTFTDYEMHWVKQTPVHGLEWIGATDPETDNTAYNQKFKGKAILTTDKSSSTAYMELRSLTSEDSAVYYCITSGWNDWGQGTSLTVSS VL: DIKMTQSPSSMYASLGERVTITCKASQDINSYLSWFQQKPGKSPKTLIYRANRLLDGVPSRFSGSGSGQDYSLTISSLEYEDMGIYYCLQYNEFPYTFGGGTKLEIK	384	334	498	534	804	678	825	673	890	801	56.8	151	95.9
